For test [1], the target named is T1, IL-20RA/IL-20RB heterodimeric receptor (human), on cells (human, UniProt Q9UHF4 30-553; Q6UXL0 30-311).
T1 sequence 1: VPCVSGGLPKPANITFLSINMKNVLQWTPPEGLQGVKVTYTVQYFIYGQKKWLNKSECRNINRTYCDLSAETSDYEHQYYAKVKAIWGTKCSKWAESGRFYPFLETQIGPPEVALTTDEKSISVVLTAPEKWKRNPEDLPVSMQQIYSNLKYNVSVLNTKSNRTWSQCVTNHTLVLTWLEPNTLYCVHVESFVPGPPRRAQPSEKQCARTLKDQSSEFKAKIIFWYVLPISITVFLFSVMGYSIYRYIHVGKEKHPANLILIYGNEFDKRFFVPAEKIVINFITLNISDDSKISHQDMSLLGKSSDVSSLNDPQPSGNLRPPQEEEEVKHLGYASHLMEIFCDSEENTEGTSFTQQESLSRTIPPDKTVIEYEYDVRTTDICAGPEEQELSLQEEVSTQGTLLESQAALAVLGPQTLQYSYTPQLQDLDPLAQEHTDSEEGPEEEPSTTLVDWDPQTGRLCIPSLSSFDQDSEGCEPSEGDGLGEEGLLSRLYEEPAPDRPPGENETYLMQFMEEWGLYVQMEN
T1 sequence 2: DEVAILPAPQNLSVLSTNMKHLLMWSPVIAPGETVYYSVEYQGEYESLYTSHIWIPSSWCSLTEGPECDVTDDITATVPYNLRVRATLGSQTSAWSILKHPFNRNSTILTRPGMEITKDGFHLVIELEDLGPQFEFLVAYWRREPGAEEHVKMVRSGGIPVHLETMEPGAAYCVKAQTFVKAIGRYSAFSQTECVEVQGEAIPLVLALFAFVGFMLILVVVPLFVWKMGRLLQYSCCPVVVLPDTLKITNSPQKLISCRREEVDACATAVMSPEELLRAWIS
Put plainly: cell-based or functional assay.

Test [2] concerns the target T2, IL-20RA (human), on cells (human, UniProt Q9UHF4 30-553).
T2 construct: This id covers the subunit expressed alone on BHK or BaF3/KZ134 transfectants; It is also used for endogenous IL-20RA on human monocytic cells and in human lung tissue; also called ZcytoR7; IL-20RA only
T2 sequence: T1 sequence 1
The test is described as follows: radiolabeled ligand binding on stably transfected BHK cells. The procedure: (§1) The specificity and affinity of IL-20 for its receptor was determined using BHK cells stably transfected with IL-20RA, IL-20RB or both receptor subunits. […] Binding of ¹²⁵I-labeled IL-20 was eliminated in the presence of 100-fold excess of unlabeled IL-20 but not with 100-fold excess of the unrelated cytokine, IL-21.

The target in test [3] is T3, IL-20RB (human), on cells (human, UniProt Q6UXL0 30-311).
T3 construct: This id covers the subunit expressed alone on BHK or BaF3/KZ134 transfectants; It is also used for endogenous IL-20RB on THP-1 cells; also called DIRS1; pDIRS1
T3 sequence: T1 sequence 2
Described as above. As to the method: as §1

Test [4] deals with T1, IL-20RA/IL-20RB heterodimeric receptor …. Put plainly: 125I-IL-20 binding on BHK cells expressing IL-20RA and IL-20RB. The procedure: as §1

B1: human IL-20-Bv (purified mature recombinant human IL-20 produced in Baculovirus) (ligand)
chain: LKTLNLGSCVIATNLQEIRNGFSDIRGSVQAKDGNIDIRILRRTESLQDTKPANRCCLLRHLLRLYLDRVFKNYQTPDHYTLRKISSLANSFLTIKKDLRLCHAHMTCHCGEEAMKKYSQILSHFEKLEPQAAVVKALGELDILLQWMEETE
Take B1: in test [1], the “Alamar Blue proliferation of BaF3/KZ134/IL-20RA/IL-20RB cells at 1 pM IL-20” value stood at 2 fold over background and the “Alamar Blue proliferation of BaF3/KZ134/IL-20RA/IL-20RB cells at 1 nM IL-20” value is roughly 30 fold over background.

B2: IL-20 (human IL-20, mature polypeptide; preparation or host not specified) (ligand)
chain: B1 chain
notes: also called Zcyto10; IL-20 protein
For the molecule B2, the binding result in test [2] and in test [3] was “no binding” in each case. Also, the Kd (usually the concentration at which binding is half-saturated) in test [4] was roughly 1.5 nM.

(Values after patent US20050136004A1 (ZymoGenetics, published 2005).)
